From PMC4743056 come the findings set out here.

Assay in all cases: fluorescence polarization
A general note: Fluorescence polarisation rises when a labelled molecule tumbles more slowly, as on binding a larger partner.

In series [1] the target is hPRDM9 ZnF8-12 N789H (allele L20) (Homo sapiens, allele L20, UniProt Q9NQV7 717-858, N790H).
In series [2] the target is hPRDM9A ZnF8-12 (allele A) (Homo sapiens, allele A, UniProt Q9NQV7 717-858).
The next series deals with hPRDM9A ZnF8-11 (Homo sapiens, allele A, UniProt Q9NQV7 717-830).
hPRDM9A ZnF8-11, sequence (Q9NQV7 717-830): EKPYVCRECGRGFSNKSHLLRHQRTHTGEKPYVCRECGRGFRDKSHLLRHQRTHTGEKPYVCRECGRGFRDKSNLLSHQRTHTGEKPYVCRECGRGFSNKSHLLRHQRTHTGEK
In the next series the target is hPRDM9A ZnF8-13 (Homo sapiens, allele A, UniProt Q9NQV7 717-894).
hPRDM9A ZnF8-13, sequence (Q9NQV7 717-894): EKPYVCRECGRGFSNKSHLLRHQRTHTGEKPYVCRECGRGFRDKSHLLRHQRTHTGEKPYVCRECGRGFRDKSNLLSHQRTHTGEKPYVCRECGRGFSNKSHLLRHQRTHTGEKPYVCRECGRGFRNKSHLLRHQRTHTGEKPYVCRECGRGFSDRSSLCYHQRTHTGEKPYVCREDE

hPRDM9 ZnF8-12 N789H (allele L20), sequence (Q9NQV7 717-858 N790H): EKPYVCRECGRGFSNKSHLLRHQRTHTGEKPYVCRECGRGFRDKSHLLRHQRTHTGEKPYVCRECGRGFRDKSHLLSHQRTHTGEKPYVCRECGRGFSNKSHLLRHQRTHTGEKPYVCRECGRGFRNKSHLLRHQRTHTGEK
hPRDM9A ZnF8-12 (allele A), sequence (Q9NQV7 717-858): as the sequence (Q9NQV7 717-858 N790H) above, with H74N counted along it

B1: THE1B T:A to C:G (dsDNA)
DNA 1: GAGGCCTCCCCAGCCACGTGGAAC
DNA 2: GTTCCACGTGGCTGGGGAGGCCTC
As to B1, the binding result in series [1] was “binds”.

B2: THE1B with 5mC at position 17 bottom strand (dsDNA)
DNA 1: GAGGCCTCCCTAGCCACGTGGAAC
DNA 2: GTTCCACGTGGCTAGGGAGGCCTC
modifications: 5-methylcytosine at bottom strand base 7 (C of G:C bp 17)
On to B2, for which, in series [2], the binding signal was ~1 fold (same as unmethylated).

B3: THE1B 24-bp (dsDNA)
DNA 1: GAGGCCTCCCTAGCCACGTGGAAC
DNA 2: GTTCCACGTGGCTAGGGAGGCCTC
B3: the values for the binding signal with hPRDM9A ZnF8-11 and in the series with hPRDM9A ZnF8-13 were ~12 fold lower affinity than ZnF8-12 and ~1 fold (similar to ZnF8-12), respectively.
